Earlier results as cited in PMC4659487.

Target: MurC (Escherichia coli) (UniProt P17952)

Kd: 1000 nM
Substance: MurC (from UniProt P17952)
